{"source": "paper PMC6589827", "about": "(Biochemistry, 2019)", "molecules": {"B1": {"name": "ovalbumin: protein crowder isolated from fresh eggs (protein, UniProt P01012 2-386, looked up)", "Ovalbumin": "GSIGAASMEFCFDVFKELKVHHANENIFYCPIAIMSALAMVYLGAKDSTRTQINKVVRFDKLPGFGDSIEAQCGTSVNVHSSLRDILNQITKPNDVYSFSLASRLYAEERYPILPEYLQCVKELYRGGLEPINFQTAADQARELINSWVESQTNGIIRNVLQPSSVDSQTAMVLVNAIVFKGLWEKAFKDEDTQAMPFRVTEQESKPVQMMYQIGLFRVASMASEKMKILELPFASGTMSMLVLLPDEVSGLEQLESIINFEKLTEWTSSNVMEERKIKVYLPRMKMEEKYNLTSVLMAMGITDVFSSSANLSGISSAESLKISQAVHAAHAEINEAGREVVGSAEAGVDAASVSEEFRADHPFLFCIKHIATNAVLFFGRCVSP"}}, "key": {"[1]": {"experiment": "ITC titration of folate into the crowders", "type": "binding"}, "[2]": {"target": "hemoglobin", "settings": "read-out: Kd of folate for central cavity of hemoglobin; cited from earlier work"}, "[3]": {"target": "R67 DHFR-NADP^+ (Escherichia coli, UniProt P00383)", "sequence (P00383 whole entry)": "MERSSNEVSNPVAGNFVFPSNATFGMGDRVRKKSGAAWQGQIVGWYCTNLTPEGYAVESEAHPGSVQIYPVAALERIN", "experiment": "ITC, DHF binding to binary complex of R67 DHFR and NADP+"}, "[4]": {"target": "EcDHFR (Escherichia coli, UniProt P0ABQ4)", "sequence (P0ABQ4 whole entry)": "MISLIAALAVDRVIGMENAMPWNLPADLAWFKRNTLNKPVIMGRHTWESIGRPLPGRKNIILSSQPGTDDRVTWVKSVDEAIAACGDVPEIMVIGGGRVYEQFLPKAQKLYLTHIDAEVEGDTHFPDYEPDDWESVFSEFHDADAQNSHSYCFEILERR", "settings": "for decrease of kcat, DHF reduction by EcDHFR: crowder at 50 mg/mL"}, "[5]": {"target": "R67 DHFR (Escherichia coli, UniProt P00383)", "sequence (P00383 whole entry)": "as the sequence (P00383 whole entry) above", "experiment": "Progress curve kinetics, reduction of DHF by R67 DHFR", "type": "biochemical", "settings": "saturating NADPH, progress curves"}, "[6]": {"target": "apo-EcDHFR (Escherichia coli, UniProt P0ABQ4)", "sequence (P0ABQ4 whole entry)": "as the sequence (P0ABQ4 whole entry) above", "experiment": "ITC, NADP+ binding to apo-EcDHFR", "design": "species or system E. coli"}}}
{"molecule": "Nc1nc(=O)c2nc(CNc3ccc(C(=O)N[C@@H](CCC(=O)O)C(=O)O)cc3)cnc2[nH]1", "note": "[folate]", "values": [{"measurement": "heat of binding on titration into the crowders", "setting": "[1]", "result": "no heat of binding"}, {"measurement": "Kd", "setting": "[2]", "result": "~1000", "unit": "µM"}]}
{"molecule": "Hemoglobin: bovine hemoglobin, 64,500 Da, protein crowder", "values": [{"measurement": "weakening of R67 DHFR affinity for DHF", "setting": "[3]; crowder at 50 mg/mL", "result": 5.5, "unit": "fold"}]}
{"molecule": "casein", "values": [{"measurement": "effect on kcat, DHF reduction by EcDHFR", "setting": "[4]; over the range of concentrations used", "result": "did not alter the kcat"}]}
{"molecule": "lysozyme: hen egg-white lysozyme, 14,300 Da, protein crowder", "values": [{"measurement": "effect on efficiency (kcat/KM) of R67 DHFR reduction of DHF", "setting": "[5]", "result": "increases the efficiency"}, {"measurement": "decrease of kcat, DHF reduction by EcDHFR", "setting": "[4]", "result": "about 60%"}, {"measurement": "decrease of affinity of NADP^+ for EcDHFR", "setting": "[6]; crowder at 50 mg/mL", "result": 5, "unit": "fold"}]}
{"molecule": "B1", "values": [{"measurement": "effect on the affinity of R67 DHFR for DHF", "setting": "[3]; crowder added, ITC", "result": "little effect"}, {"measurement": "decrease of kcat, DHF reduction by EcDHFR", "setting": "[4]", "result": "about 60%"}, {"measurement": "effect on affinity of NADP^+ for apo-EcDHFR", "setting": "[6]; over the concentration ranges used (up to 150 mg/mL with PVP-55)", "result": "no effect on affinity"}]}
